Measured values: the Human Domainome abundance scans (Beltran et al. 2025)
± gives the uncertainty stated by the source.

B1: RAS guanyl-releasing protein 1, residues 539 to 593; numbered along this chain, O95267 (parent)
chain: GFPHNFQETTYLKPTFCDNCAGFLWGVIKQGYRCKDCGMNCHKQCKDLVVFECKK

Variants of: B1
Assay: abundance fitness (aPCA) (normalised: wild type 0, dead -1); higher = more abundant; growth selection in yeast, the domain comes from the species named
Conditions: Homo sapiens

Abundance fitness of substitutions, site by site:
E8: P -0.303 ± 0.084; T -0.274 ± 0.19; M 0.197 ± 0.11
F16: A -0.085 ± 0.08; T -0.33 ± 0.11; C 0.038 ± 0.11
H42: G -0.249 ± 0.082; C -0.416 ± 0.13; M -0.76 ± 0.15; Y -0.892 ± 0.38; L -1.09 ± 0.1; T -0.921 ± 0.22
Q7: V -0.197 ± 0.061; N 0.016 ± 0.12; Y -0.151 ± 0.14; D -0.204 ± 0.14; I -0.217 ± 0.15; L -0.149 ± 0.079; R -0.123 ± 0.068; A -0.027 ± 0.065
T15: A 0.105 ± 0.092; N -0.336 ± 0.13; G -0.607 ± 0.088; K -0.391 ± 0.14; I -0.162 ± 0.069
P3: M 0.131 ± 0.12; D 0.677 ± 0.23; S 0.099 ± 0.1; G 0.116 ± 0.075; E 0.357 ± 0.13; C 0.291 ± 0.12; V 0.064 ± 0.076; I 0.209 ± 0.12; F 0.483 ± 0.25
C53: K -0.257 ± 0.19; D -0.061 ± 0.14; T -0.245 ± 0.1; R -0.255 ± 0.067; Q 0.043 ± 0.077; I -0.297 ± 0.2
G31: P -1.08 ± 0.37; F -0.205 ± 0.15; S -0.482 ± 0.059; I -0.685 ± 0.22; K -0.748 ± 0.13; H -0.559 ± 0.12; C -0.352 ± 0.08; E -0.414 ± 0.11
D18: I -0.142 ± 0.09; R -0.059 ± 0.084; H -0.383 ± 0.27; P -0.732 ± 0.12; W 0.123 ± 0.11; Q -0.001 ± 0.07
L24: Y -0.623 ± 0.1; D -0.709 ± 0.31; H -0.465 ± 0.22; R -0.375 ± 0.049; T -0.279 ± 0.11; S -0.325 ± 0.071; E -0.369 ± 0.13; G -0.48 ± 0.083; C -0.118 ± 0.11; N -0.303 ± 0.06
N19: D -0.101 ± 0.11; T -0.043 ± 0.056; H -0.02 ± 0.12; G 0.134 ± 0.051; R -0.036 ± 0.06
V49: P -0.174 ± 0.12; W 0.038 ± 0.14; T -0.055 ± 0.1; N 0.035 ± 0.15; A 0.041 ± 0.086; F 0.002 ± 0.065
L48: Y 0.007 ± 0.049; W -0.052 ± 0.053; V -0.049 ± 0.081; Q 0.031 ± 0.09; S 0.058 ± 0.089; H -0.209 ± 0.21
Y11: V -0.25 ± 0.079; L -0.031 ± 0.071; C -0.151 ± 0.074; N -0.225 ± 0.073; H 0 ± 0.18; W -0.17 ± 0.14; F 0.227 ± 0.11; T -0.318 ± 0.15
N40: K -0.17 ± 0.063; R -0.142 ± 0.059; H -0.127 ± 0.047; I -0.093 ± 0.049; V -0.063 ± 0.044; P -0.144 ± 0.04; A -0.081 ± 0.063; M -0.087 ± 0.061; L -0.349 ± 0.045
K55: S 0.077 ± 0.13; G -0.084 ± 0.14; R -0.435 ± 0.37
K54: C -0.157 ± 0.046; W -0.378 ± 0.13; L -0.269 ± 0.087; N -0.113 ± 0.089; R -0.028 ± 0.076; G -0.303 ± 0.1
Q30: R -0.519 ± 0.1; Y -0.693 ± 0.19; S -0.54 ± 0.061; A -0.597 ± 0.12; L -0.765 ± 0.12; W -0.586 ± 0.2; E -0.589 ± 0.058
G22: V -0.482 ± 0.12; Y -0.317 ± 0.13; C 0.147 ± 0.088; K -0.278 ± 0.15; H -0.078 ± 0.11; M 0.105 ± 0.072; Q -0.146 ± 0.11; E -0.164 ± 0.14
L12: Q -0.337 ± 0.19; W -0.298 ± 0.13; N -0.768 ± 0.4
C41: N -0.47 ± 0.24; M -0.281 ± 0.15; T -0.035 ± 0.092; I -0.012 ± 0.091; H -0.662 ± 0.32; A -0.016 ± 0.072; D -0.758 ± 0.33
F51: S 0.011 ± 0.082; Y 0.05 ± 0.086; C -0.061 ± 0.12; K -0.155 ± 0.085; M -0.029 ± 0.054; H -0.426 ± 0.31; D -0.043 ± 0.15
H4: D -0.595 ± 0.063; Y -0.716 ± 0.3; W -1.04 ± 0.12; K -0.243 ± 0.11; V -0.947 ± 0.078; S -0.92 ± 0.069
K35: T -0.022 ± 0.08; D -0.096 ± 0.14; S -0.026 ± 0.07; N -0.297 ± 0.11; R -0.004 ± 0.067; H -0.029 ± 0.11; W -0.19 ± 0.095; C -0.13 ± 0.096
C17: T -0.821 ± 0.37; M -0.578 ± 0.1; P -1.13 ± 0.33; Q -0.755 ± 0.1; D -0.986 ± 0.12
P14: V -0.384 ± 0.082; F -0.364 ± 0.18; A -0.253 ± 0.09; C -0.235 ± 0.049
I28: L -0.27 ± 0.093; C -0.223 ± 0.14; S -0.136 ± 0.072; Y -0.199 ± 0.093; D -0.429 ± 0.2
G1: L -0.027 ± 0.11; R -0.187 ± 0.14
D47: S 0.068 ± 0.082; F -0.143 ± 0.41; Q 0.083 ± 0.12; N -0.306 ± 0.14
D36: R -0.055 ± 0.075; T -0.02 ± 0.11; P -0.2 ± 0.13; W -0.041 ± 0.068; Y -0.296 ± 0.14; K -0.139 ± 0.1; F -0.108 ± 0.16; M -0.09 ± 0.11; C -0.245 ± 0.14; A -0.146 ± 0.069; V -0.289 ± 0.096
N5: A -0.141 ± 0.077; G -0.075 ± 0.054; M -0.018 ± 0.089; D -0.104 ± 0.17; E -0.098 ± 0.12; W -0.14 ± 0.083; I -0.039 ± 0.082; L -0.026 ± 0.053
V27: H -0.516 ± 0.37; A -0.102 ± 0.12; R -0.647 ± 0.11
Q44: I -0.294 ± 0.28; R 0.047 ± 0.065; W 0.003 ± 0.087; T -0.226 ± 0.13; F 0.072 ± 0.14; V 0.079 ± 0.11
Y32: C -0.059 ± 0.07; Q -0.536 ± 0.23; K -0.132 ± 0.047; H -0.132 ± 0.1; E -0.166 ± 0.1; L -0.104 ± 0.055; I -0.184 ± 0.13
T9: R -0.068 ± 0.089; N -0.051 ± 0.14; D -0.131 ± 0.11; K -0.473 ± 0.15; W -0.136 ± 0.1
C34: L -0.915 ± 0.094; G -0.951 ± 0.083; A -0.81 ± 0.18
K13: A -0.223 ± 0.078; C -0.153 ± 0.062; E -0.565 ± 0.16; F -0.167 ± 0.12; T -0.105 ± 0.1; G -0.333 ± 0.082; N -0.336 ± 0.16
F6: D -0.788 ± 0.26; R -0.574 ± 0.091; L -0.138 ± 0.078; Y -0.093 ± 0.091; A -0.267 ± 0.062
G26: E -0.517 ± 0.14; W -0.269 ± 0.06; K -0.442 ± 0.16; D -0.449 ± 0.084; Q -0.462 ± 0.1; L -0.452 ± 0.083; R -0.616 ± 0.093; I -0.946 ± 0.27; H -0.375 ± 0.092
V50: W -0.121 ± 0.071; I -0.541 ± 0.23; L 0.07 ± 0.079; K -0.383 ± 0.15
W25: C -0.558 ± 0.17; D -0.121 ± 0.15; E -0.047 ± 0.093; I -0.038 ± 0.14; R -0.217 ± 0.067; V -0.102 ± 0.05; A -0.148 ± 0.078; S -0.246 ± 0.097
T10: V -0.95 ± 0.17; I -0.576 ± 0.1; F -0.045 ± 0.37
E52: F 0.184 ± 0.12; N -0.174 ± 0.18; Q -0.166 ± 0.15; G -0.031 ± 0.045; P -0.066 ± 0.071; K -0.057 ± 0.092; S -0.203 ± 0.09; D 0.104 ± 0.092
G38: D -0.003 ± 0.11; P -0.081 ± 0.12
F23: I -0.032 ± 0.14; H -0.706 ± 0.2; R -0.242 ± 0.088; G -0.328 ± 0.062; Y -0.074 ± 0.12; L 0.105 ± 0.086; P -0.409 ± 0.22; M -0.022 ± 0.089
K46: W -0.032 ± 0.053; T -0.069 ± 0.079; S -0.078 ± 0.069; A -0.09 ± 0.12; N -0.337 ± 0.17; G -0.018 ± 0.076; F -0.228 ± 0.14
C45: D -0.036 ± 0.13; M -0.57 ± 0.18; H -0.446 ± 0.13
A21: G -0.084 ± 0.054; I 0.04 ± 0.12; M -0.162 ± 0.26; R 0.053 ± 0.078; F -0.074 ± 0.14; C -0.009 ± 0.046; E -0.041 ± 0.11
K43: G -0.074 ± 0.052; T -0.024 ± 0.1; M -0.031 ± 0.093; P -0.146 ± 0.09; S -0.006 ± 0.061
C37: E -0.967 ± 0.41; P -1.07 ± 0.24; T -0.427 ± 0.1; Q -0.87 ± 0.32; S -0.625 ± 0.083; G -1.14 ± 0.14; W -0.607 ± 0.11; V -0.959 ± 0.098
M39: F -0.158 ± 0.051; R -0.143 ± 0.048; Q -0.032 ± 0.067; T -0.142 ± 0.048; C -0.455 ± 0.054; L -0.122 ± 0.04; P -1.03 ± 0.064; Y -0.1 ± 0.045; W -0.157 ± 0.058
K29: N 0.013 ± 0.12; P -0.556 ± 0.078; I -0.252 ± 0.15
R33: A -0.167 ± 0.093; W 0.004 ± 0.096; L -0.078 ± 0.078; D -0.26 ± 0.14; S -0.025 ± 0.058; K 0.121 ± 0.091; V -0.1 ± 0.046; I 0.118 ± 0.076; N 0.286 ± 0.17; E 0.129 ± 0.079
C20: E -0.931 ± 0.2; M -1.05 ± 0.17; G -1.12 ± 0.081; D -0.541 ± 0.096; T -1.05 ± 0.15; H -0.695 ± 0.34
F2: D -0.086 ± 0.059; N 0.214 ± 0.093; C -0.214 ± 0.11; E -0.343 ± 0.1; W -0.523 ± 0.16; A -0.261 ± 0.095
